Assay results as given in patent publication CN110734897A (ZHEJIANG BLUE SHIELD PHARMA CO LTD, dated 2020).

Target: T1, 重组人SIRPα-his融合蛋白 (Acro Biosystems SIA-H5225) (human, UniProt P78324 31-370)
T1 construct: Bought reagent; also called 人SIRPα重组蛋白; not shown: his tag
Experiment: indirect ELISA screen of hybridoma supernatants, SIRPα-his coated

T1 sequence (P78324 31-370 limits assumed): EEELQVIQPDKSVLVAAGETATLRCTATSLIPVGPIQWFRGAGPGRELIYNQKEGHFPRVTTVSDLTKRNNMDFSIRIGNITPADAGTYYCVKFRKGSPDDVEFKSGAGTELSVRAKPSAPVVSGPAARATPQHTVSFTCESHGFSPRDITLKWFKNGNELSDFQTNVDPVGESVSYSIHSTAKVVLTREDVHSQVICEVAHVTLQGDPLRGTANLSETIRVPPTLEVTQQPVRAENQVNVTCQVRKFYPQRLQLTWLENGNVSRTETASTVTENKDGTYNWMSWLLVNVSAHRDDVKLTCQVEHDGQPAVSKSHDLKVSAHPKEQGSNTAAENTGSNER

- binding result: binds
B1: 杂交瘤细胞株12G6产生的抗人SIRPα单克隆抗体 (antibody, IgG2b, V domains shown)
VH: QIQLVQSGPELKKPGETVKISCKASGYTFTNYGMHWVKQAPGKDLKWMGWINTYTGEPTNADDFKGRFAFSLETSDRTAFLQINNLKNEDTATYFCARGHHYGNYAWFAYWGQGTLVTVSA
VL: DIVMTQSHKFMSTSVGDRVSITCKASQDVSLAVAWYQQKPGQSPKVLIYWASTRHTGVPDRFAGSGSGTDYTLTISSVQAEDLALYYCQQHYSTPWTFGGGTKLEIN
notes: also called 纯化的抗人SIRPα单克隆抗体
